From US7125658B2, “Small protein that interacts with a ribonucleotide reductase subunit and uses thereof” (The Trustees of Columbia University in the City of New York, priority 1998, dated 2006)

How the values were obtained:
[1] = molecular target: T1, Recombinant yeast Rnr1 protein (large subunit of ribonucleotide reductase) (yeast (Saccharomyces cerevisiae), UniProt P21524 1-888); assay: cell-based or functional assay
T1 sequence (looked up): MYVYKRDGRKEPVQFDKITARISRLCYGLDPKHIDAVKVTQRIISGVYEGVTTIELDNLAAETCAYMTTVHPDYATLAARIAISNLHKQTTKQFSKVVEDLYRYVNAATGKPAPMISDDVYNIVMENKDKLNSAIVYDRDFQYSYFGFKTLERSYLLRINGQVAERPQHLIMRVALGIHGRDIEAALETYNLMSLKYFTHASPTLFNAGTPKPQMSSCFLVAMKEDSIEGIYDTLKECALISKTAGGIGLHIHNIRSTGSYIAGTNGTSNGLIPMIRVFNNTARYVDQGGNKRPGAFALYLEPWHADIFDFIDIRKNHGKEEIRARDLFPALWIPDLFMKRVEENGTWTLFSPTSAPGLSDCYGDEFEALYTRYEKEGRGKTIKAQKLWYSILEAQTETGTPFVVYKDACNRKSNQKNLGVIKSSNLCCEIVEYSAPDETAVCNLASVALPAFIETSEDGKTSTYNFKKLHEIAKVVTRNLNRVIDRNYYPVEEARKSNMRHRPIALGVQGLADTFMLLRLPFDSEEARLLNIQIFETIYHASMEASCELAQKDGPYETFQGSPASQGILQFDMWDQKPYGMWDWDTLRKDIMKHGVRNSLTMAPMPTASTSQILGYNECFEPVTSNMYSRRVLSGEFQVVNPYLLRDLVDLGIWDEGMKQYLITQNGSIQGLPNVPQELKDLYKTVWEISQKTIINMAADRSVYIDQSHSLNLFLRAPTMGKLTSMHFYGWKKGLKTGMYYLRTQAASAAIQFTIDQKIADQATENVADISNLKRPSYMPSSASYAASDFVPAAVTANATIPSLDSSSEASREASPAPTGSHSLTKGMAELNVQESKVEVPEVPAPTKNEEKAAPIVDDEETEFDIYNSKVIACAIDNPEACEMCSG

mouse R1 protein = molecular target: T2, mouse R1 protein (Mus musculus, UniProt P07742); assay: BIAcore biosensor analysis, immobilized Sml1p and mouse R1 protein; type: binding; conditions: not quantified
T2 construct: made in house; host or cells: E. coli BL21 (DE3)pLysS, pET3a
T2 sequence (P07742 1-792): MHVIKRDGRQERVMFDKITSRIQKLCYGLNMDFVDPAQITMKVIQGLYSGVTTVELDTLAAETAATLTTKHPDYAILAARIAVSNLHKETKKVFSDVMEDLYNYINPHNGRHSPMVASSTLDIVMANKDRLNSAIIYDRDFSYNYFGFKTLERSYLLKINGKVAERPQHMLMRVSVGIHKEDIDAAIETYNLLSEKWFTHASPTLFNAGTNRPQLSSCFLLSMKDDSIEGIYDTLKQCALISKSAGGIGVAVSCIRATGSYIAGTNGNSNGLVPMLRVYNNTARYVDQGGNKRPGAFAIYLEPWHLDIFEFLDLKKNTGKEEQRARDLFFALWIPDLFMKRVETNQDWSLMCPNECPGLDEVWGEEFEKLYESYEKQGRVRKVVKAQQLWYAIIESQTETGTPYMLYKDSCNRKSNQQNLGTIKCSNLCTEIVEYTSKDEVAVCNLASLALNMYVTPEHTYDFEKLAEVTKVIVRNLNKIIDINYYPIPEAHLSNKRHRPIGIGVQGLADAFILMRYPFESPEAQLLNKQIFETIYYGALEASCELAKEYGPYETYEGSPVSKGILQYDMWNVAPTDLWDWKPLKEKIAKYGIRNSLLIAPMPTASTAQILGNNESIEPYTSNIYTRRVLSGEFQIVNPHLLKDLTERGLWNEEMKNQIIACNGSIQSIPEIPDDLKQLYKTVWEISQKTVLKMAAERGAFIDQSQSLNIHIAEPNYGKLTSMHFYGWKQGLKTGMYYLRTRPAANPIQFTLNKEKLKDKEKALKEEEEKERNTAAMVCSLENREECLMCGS
Protocol: FIG. 14 Sensorgram showing the interaction between immobilized Sml1p and the mouse R1 protein. […] Curve 3 showes the response with mouse R1 protein alone at 0.1 mg/ml passed over immobilized Sml1p. Note that the injection time for this curve is prolonged from 6 min to 14 min.
BIAcore biosensor analysis. The interaction between Sml1p and either yeast Rnr1p or mouse R1 protein was studied by biosensor analysis using the BIAcore method (Biacore AB). The Sml1 protein was prepared in 10 mM sodium acetate, pH 5.2, at a concentration of 0.44 mg/ml; it was then immobilized on the dextran layer of the sensor chip as described previously for the mouse R2 protein (17). The ligand proteins were equilibrated with running buffer (10 mM Hepes-KOH, pH 7.4, 200 mM potassium acetate, 1 mM EDTA, 5 mM magnesium acetate and 0.05% Surfactant P20 (BIAcore). The interactions were studied at a constant temperature of 22° C. and a constant flow of 5 μl/min. Kinetics for the interaction of Sml1p with yeast Rnr1p was determined by allowing the immobilized Sml1p to interact with increasing concentrations of Rnr1p (18). The resonance unit (RU) is proportional to the mass, and 1 RU corresponds to a surface concentration of 1 pg of protein/mm^2 of the 100 nm thick dextran layer (19).
Kinetic studies of the interaction between the mouse RNR R1 protein and the Sml1 protein using a biosensor technique. […]

B1: Recombinant yeast Sml1 protein (other)
chain: MQNSQDYFYAQNRCQQQQAPSTLRTVTMAEFRRVPLPPMAEVPMLSTQNSMGSSASASASSLEMWEKDLEERLNSIDHDMNNNKFGSGELKSMFNQGKVEEMDF
notes: Immobilized on the BIAcore chip in the biosensor experiments; also called YML058W product
[1]
  efficiency in inhibiting yeast RNR activity relative to the Sml1p C terminal nonapeptide, molar basis: ~200 times

B2: Sml1p: 104 amino acid yeast protein encoded by YML058w (SML1) that binds Rnr1 and inhibits ribonucleotide reductase; recombinant, expressed in E. coli (protein)
chain: MQNSQDYFYAQNRCQQQQAPSTLRTVTMAEFRRVPLPPMAEVPMLSTQNSMGSSASASASSLEMWEKDLEERLNSIDHDMNNNKFGSGELKSMFNQGKVEEMDF
Mouse R1 protein
  binding to mouse R1 protein: high affinity
